Laboratory results published in patent US20110236411A1.

Biological target: purified folded MHC-complex (Example 34, allele and peptide not stated)
Experiment: sandwich ELISA, W6/32 coated, HRP rabbit anti-β2m detection

## W6/32 mouse-anti-HLA-ABC antibody (Dako M0736)
  fold of OD450 against the negative control β2m: > 6 fold
